From patent US20240343803A1 (SHANDONG SIMCERE BIOPHARMACEUTICAL, published 2024)
Positions count from the first letter of the chain named.

How the values were obtained:
[1] = molecular target: T1, Fusion protein of extracellular domain of human TIGIT and mouse IgG2a Fc fragment (human TIGIT ECD-mFc) (human); test: FACS; blocking of TIGIT ECD-mFc binding to CHO-K1 CD112 cells
T1 construct: The entry includes the signal peptide (limits not recoverable) and the mouse IgG2a Fc
T1 chain: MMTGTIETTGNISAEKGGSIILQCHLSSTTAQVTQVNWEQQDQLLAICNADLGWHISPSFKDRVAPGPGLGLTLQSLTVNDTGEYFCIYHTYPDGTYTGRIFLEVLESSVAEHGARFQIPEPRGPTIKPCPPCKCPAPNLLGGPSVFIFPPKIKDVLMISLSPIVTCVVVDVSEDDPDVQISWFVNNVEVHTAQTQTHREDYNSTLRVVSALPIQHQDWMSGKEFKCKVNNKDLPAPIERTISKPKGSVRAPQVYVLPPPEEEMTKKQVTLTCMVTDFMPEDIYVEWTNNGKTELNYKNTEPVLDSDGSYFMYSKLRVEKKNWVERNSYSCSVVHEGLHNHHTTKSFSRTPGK
Protocol: The collected CHO-K1 CD112 cells were washed once with PBS (Hyclone, CAT #SH30256) and resuspended to 2×10⁵/40 μL with 1% BSA-PBS. The anti-TIGIT humanized antibodies were diluted to 600 nM with 1% BSA-PBS (diluted by 2.5-fold serial dilution for 12 concentration points). The TIGIT ECD-mFc was diluted with 1% BSA-PBS to 6 μg/mL. The 40 μL cells were then mixed with 40 μL diluted antibodies and 40 μL diluted TIGIT ECD-mFc, and then incubated at 4° C. for 60 minutes. […] The cell samples were washed twice with PBS, resuspended to 100 μL/well with 1% BSA-PBS and then analyzed by flow cytometry (BD, Canto II). […] (f) The binding activity of anti-TIGIT humanized antibodies to human PBMCs detected by FACS.

[2] = molecular target: T2, Full-length human TIGIT on CHO-K1 cells (CHO-K1 human TIGIT) (human, UniProt Q495A1 22-244); test: FACS; CHO-K1 human TIGIT low expression strain
T2 construct: NCBI XP_024309156.1; the entry includes the signal peptide (limits not recoverable); The strain (high, medium, low) is named under assay; also called high expression strain 1D2; medium expression strain 2D10
T2 sequence: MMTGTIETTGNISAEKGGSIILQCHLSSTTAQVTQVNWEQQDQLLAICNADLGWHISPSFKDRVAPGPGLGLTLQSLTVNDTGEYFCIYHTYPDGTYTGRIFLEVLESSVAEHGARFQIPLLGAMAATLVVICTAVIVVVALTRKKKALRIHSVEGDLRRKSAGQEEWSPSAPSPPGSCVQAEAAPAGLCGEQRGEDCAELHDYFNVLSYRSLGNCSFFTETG
Procedure, shortened: (§1)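 The EC50 was derived from binding curves obtained by flow cytometry on CHO-K1 cells expressing full-length TIGIT of human or cynomolgus monkey origin. Cells (2×10⁵/50 μL, 1% BSA-PBS) were mixed 1:1 with a 12-point, 3-fold antibody dilution series that began at 80 nM before mixing, then incubated for 60 min at 4° C.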

[3] = molecular target: T1, Fusion protein of extracellular domain …; test: ELISA, human TIGIT ECD-mFc
Procedure, shortened: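 Plates blocked with 5% skim milk-PBS at 37° C for 2-4 h. Test antibodies applied as a 12-point 3-fold series from 13 nM for 1.5-2 h at 37° C. Read-out: HRP secondary (1:5000, 1 h, 37° C), TMB colour for 7-10 min at room temperature, acid stop, absorbance at OD450 nm.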

[4] = molecular target: T2, Full-length human TIGIT on CHO-K1 cells …; test: FACS; CHO-K1 human TIGIT medium expression strain
Procedure, shortened: as §1

[5] = molecular target: T3, TIGIT on human PBMCs stimulated by SEA (human, UniProt Q495A1 22-244); test: FACS; binding to SEA-stimulated human PBMC
T3 construct: whole, on cells
T3 sequence (looked up): T2 sequence
Protocol: The fresh human PBMCs (AllCells, PB004-C) were adjusted to a density of 5×10⁵/mL, added with SEA (Toxin Technology, Inc., CAT: AT101) to 100 ng/ml, and cultured at 37° C. with 5% CO₂ for 3 days. The cells were collected 3 days later, washed once with PBS (Hyclone, CAT #SH30256), added with Fc Block (BD, 564220) and then incubated at 4° C. for 10 minutes. After washing twice with PBS, the PBMCs were resuspended to 2×10⁵/50 μL with 1% BSA-PBS. The humanized antibodies were diluted to 80 nM with 1% BSA-PBS (diluted by 3-fold serial dilution for 12 concentration points). The 50 μL cells were then mixed with 50 μL diluted antibodies, and then incubated at 4° C. for 60 minutes. […] After washing twice with PBS, the cell samples were resuspended with 1% BSA-PBS, 100 μL/well and then analyzed by flow cytometry (BD, Canto II).

[6] = molecular target: T4, Fusion protein of extracellular domain of cynomolgus monkey TIGIT and mouse IgG2a Fc fragment (cynomolgus … (cynomolgus monkey)); test: ELISA, cynomolgus monkey TIGIT ECD-mFc
T4 construct: The entry includes the signal peptide (limits not recoverable) and the mouse IgG2a Fc
T4 sequence (chain, as listed by the source limits assumed): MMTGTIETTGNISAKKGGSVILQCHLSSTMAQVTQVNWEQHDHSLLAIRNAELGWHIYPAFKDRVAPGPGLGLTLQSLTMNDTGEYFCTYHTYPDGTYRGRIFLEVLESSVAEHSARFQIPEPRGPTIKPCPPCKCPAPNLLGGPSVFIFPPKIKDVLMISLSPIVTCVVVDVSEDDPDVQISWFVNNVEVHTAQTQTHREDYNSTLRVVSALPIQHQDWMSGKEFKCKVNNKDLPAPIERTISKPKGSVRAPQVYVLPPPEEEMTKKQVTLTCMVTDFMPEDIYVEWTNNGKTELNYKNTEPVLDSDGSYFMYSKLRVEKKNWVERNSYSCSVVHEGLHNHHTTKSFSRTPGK

B1: TIGIT-070-H1L1 (antibody, V domains shown)
VH: EVQLVQSGAEVKKPGASVKVSCKASGYTFTNYYMHWVRQAPGQRLEWMGRIDPDSGGSKYNEKFKSRVTITVDKSASTAYMELSSLRSEDTAVYYCAREGHYGFYSDYWGQGTTVTVSS
VL: DIQMTQSPSSLSASVGDRVTITCRVSENIYSYLAWYQQKPGKSPKLLIYNAKTLAEGVPSRFSGSGSGTDFTLTISSLQPEDFATYYCQHHYGNPLTFGPGTKVDIK
notes: Humanized anti-TIGIT antibody
[1]
  IC50: 4.3 nM
[2]
  EC50: 0.305 nM
[3]
  EC50: 0.0149 nM
[4]
  EC50: 0.45 nM
[5]
  EC50: 0.121 nM
[6]
  EC50: 0.0347 nM

B2: TIGIT-002-H4L3 (antibody, V domains shown)
VH: EVQLQESGPGLVKPSETLSLTCAVSGYSITSDSWNWIRQPPGKKLEYIGYISYSGNTYYNPSLKSRVTISRDTSKNQFSLKLSSVTAADTAVYYCARLDFSNYGGAVDYWGQGTTVTVSS
VL: DIVMTQSPDSLAVSLGERATINCKASQNVRTAVAWYQQKPGQSPKLMIYSASYRYTGVPDRFSGSGSGTDFTLTISSLQAEDVAVYYCQQYYTTPWTFGGGTKVEIK
notes: Humanized anti-TIGIT antibody
[1]
  IC50: 3.49 nM
[2]
  EC50: 0.17 nM
[3]
  EC50: 0.0138 nM
[4]
  EC50: 0.228 nM
[5]
  EC50: 0.0436 nM
[6]
  EC50: 0.0427 nM

B3: TIGIT-005-H2L1d (antibody, V domains shown)
VH: EVQLVQSGAEVKKPGASVKVSCKASGYAFTNYLIEWVRQAPGQRLEWMGVINPGSGGTNYKEKFKGRVTITADKSSSTAYMELSSLRSEDTAVYYCARGEYFFFDYWGQGTTVTVSS
VL: B2 VL with N28H, R30S, T31N, Q38H, M47L, Y91H, T93N, W96H
notes: Humanized anti-TIGIT antibody with NG-site mutation in VL
[1]
  IC50: 3.49 nM
[2]
  EC50: 0.186 nM
[3]
  EC50: 0.0291 nM
[4]
  EC50: 0.285 nM
[5]
  EC50: 0.0602 nM
[6]
  EC50: 0.0395 nM

B4: TIGIT-006-H5L3 (antibody, V domains shown)
VH: B2 VH with I29M, S33Y, N56R, L98G, F100Y, V107M, D108Y, Y109D
VL: DIVMTQSPDSLAVSLGERATINCRASQGVSTTIAWYQQKPGQSPKLLIYSASYRYTGVPRFSGSGSGTDFTLTISSLQAEDVAVYYCQQYYSSPFTFGGGTKVEIK
notes: Humanized anti-TIGIT antibody
[1]
  IC50: 4.65 nM
[2]
  EC50: 0.268 nM
[3]
  EC50: 0.0092 nM
[4]
  EC50: 0.396 nM
[5]
  EC50: 0.0916 nM
[6]
  EC50: 0.0406 nM
